Assay [1] addresses Flag-tagged SisKae1 co-expressed with His-tagged SisPcc1-like in E. coli (Saccharolobus islandicus REY15A). Nature of the assay: SEC; co-expressed Kae1/Pcc1-like, Pcc1-like about 10-fold in excess of Kae1; Superdex 200 Increase 10/300; 200 mM NaCl, 50 mM Tris-HCl pH 8.0, 5% glycerol. In general terms: In gel filtration, larger molecules generally elute earlier.
Assay [2] concerns the target T1, Kae1‐Pcc1 subcomplex (2Kae1:2Pcc1), co-expressed in E. coli (Saccharolobus islandicus REY15A, UniProt F0NFC9 1-331; F0NF65 1-91).
T1 construct: Kae1 of Saccharolobus islandicus REY15A, no tag; Pcc1 of Saccharolobus islandicus REY15A, encoded by SiRe_1278; The preformed complex (chains as m11 and m16) to which Pcc1-like was added; after addition the product is 1:1:1; also called 2Kae1:2Pcc1 subcomplex; Kae1‐Pcc1‐Pcc1‐Kae1; source: E. coli BL21(DE3)-Codon plus-RIL, pRSF-Duet1, no-tagged SisKae1 co-expressed with His-tagged SisPcc1; …
T1 sequence (looked up) 1: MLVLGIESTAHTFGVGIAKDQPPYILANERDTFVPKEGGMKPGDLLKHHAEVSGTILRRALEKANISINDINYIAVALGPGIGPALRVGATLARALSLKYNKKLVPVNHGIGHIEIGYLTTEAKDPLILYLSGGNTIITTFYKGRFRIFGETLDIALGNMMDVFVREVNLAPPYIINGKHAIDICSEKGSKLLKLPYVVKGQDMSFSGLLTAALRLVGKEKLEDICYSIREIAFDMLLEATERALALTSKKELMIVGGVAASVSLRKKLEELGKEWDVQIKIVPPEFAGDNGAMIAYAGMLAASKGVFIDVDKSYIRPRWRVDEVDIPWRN
T1 sequence (looked up) 2: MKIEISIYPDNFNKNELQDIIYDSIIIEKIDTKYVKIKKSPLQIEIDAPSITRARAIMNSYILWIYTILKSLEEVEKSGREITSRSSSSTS
Nature of the assay: SEC; 1.5-fold Pcc1-like added to the 2Kae1:2Pcc1 subcomplex, 60°C for 30 min before loading; Superdex 200 Increase 10/300; 200 mM NaCl, 50 mM Tris-HCl pH 8.0, 5% glycerol. Particulars: both partners purified.

In assay [3] the target is SisKae1 mixed in five-fold excess with SisPcc1-like for SEC (Saccharolobus islandicus REY15A). Nature of the assay: SEC; Kae1 in five-fold excess: 6 μM SisPcc1-like mixed with 30 μM SisKae1, 60°C for 30 min before loading; Superdex 200 Increase 10/300; 200 mM NaCl, 50 mM Tris-HCl pH 8.0, 5% glycerol.
Assay [4] deals with T2, His-tagged SisPcc1 co-expressed with no-tagged SisKae1 in E. coli (Saccharolobus islandicus REY15A, UniProt F0NF65 1-91).
T2 construct: Pcc1 of Saccharolobus islandicus REY15A, encoded by SiRe_1278; Pcc1 is insoluble when expressed alone in E. coli; also called His‐Pcc1; source: E. coli BL21(DE3)-Codon plus-RIL, pRSF-Duet1, co-expressed with no-tagged SisKae1; pulled down and co-purified (Ni-NTA, HiTrap Q FF, Superdex 200)
T2 sequence (looked up): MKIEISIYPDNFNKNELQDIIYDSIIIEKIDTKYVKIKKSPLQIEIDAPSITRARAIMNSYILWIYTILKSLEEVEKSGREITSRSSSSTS
Nature of the assay: SEC; co-expressed Kae1/Pcc1 subcomplex; Superdex 200 Increase 10/300; 200 mM NaCl, 50 mM Tris-HCl pH 8.0, 5% glycerol; masses from protein standards. The following applies: both partners purified.

Two molecules from article PMC10989989, “The archaeal KEOPS complex possesses a functional Gon7 homolog and has an essential function independent of the cellular t^6A modification level” (mLife, 2023) can be followed below.

For orientation: stoichiometry N means a count of units in the complex or per binding partner.

B1: His-tagged SisPcc1‐like from E. coli (natural protein, Saccharolobus islandicus REY15A, UniProt F0NIH8 1-81, looked up)
chain: MIELRILSEHEDAELIIRSLNVDNVNLPEGMSIQTKVEGKELEIVIKMRITKPNDLMTVRNTADEILAHIKALQSSFDAIS
notes: Pcc1-like (Gon7-like) of Saccharolobus islandicus REY15A, encoded by SiRe_1701; also called His‐SisPcc1‐like; source: E. coli BL21(DE3)-Codon plus-RIL, pRSF-Duet1 (alone, or co-expressed with Flag-tagged SisKae1 or SisPcc1); purified (Ni-NTA, HiTrap Q FF, Superdex 200)
In the case of B1, the stoichiometry N (Pcc1-like per Kae1) worked out at 2 in assay [1] and 1 in assay [3]. In addition, the “stoichiometry N” value in assay [2] was 1 Kae1:Pcc1:Pcc1-like 1:1:1.

B2: No-tagged SisKae1 from E. coli (natural protein, Saccharolobus islandicus REY15A, UniProt F0NFC9 1-331, looked up)
chain: MLVLGIESTAHTFGVGIAKDQPPYILANERDTFVPKEGGMKPGDLLKHHAEVSGTILRRALEKANISINDINYIAVALGPGIGPALRVGATLARALSLKYNKKLVPVNHGIGHIEIGYLTTEAKDPLILYLSGGNTIITTFYKGRFRIFGETLDIALGNMMDVFVREVNLAPPYIINGKHAIDICSEKGSKLLKLPYVVKGQDMSFSGLLTAALRLVGKEKLEDICYSIREIAFDMLLEATERALALTSKKELMIVGGVAASVSLRKKLEELGKEWDVQIKIVPPEFAGDNGAMIAYAGMLAASKGVFIDVDKSYIRPRWRVDEVDIPWRN
notes: Kae1 of Saccharolobus islandicus REY15A, no tag; Two vectors (pET15b alone; pRSF-Duet1 with His-Pcc1) give the same untagged protein; source: E. coli BL21(DE3)-Codon plus-RIL; alone (pET15b), purified; also co-expressed with His-tagged SisPcc1 (pRSF-Duet1), pulled down and co-purified
In the case of B2, the “stoichiometry N” value in assay [4] was 1 Kae1 per Pcc1 (printed as 2:2).
